Substitutions are numbered along the chain they refer to. In names and notes the source's numbering stands.
T1: TNFR1 (Homo sapiens, UniProt P19438)
T1 chain: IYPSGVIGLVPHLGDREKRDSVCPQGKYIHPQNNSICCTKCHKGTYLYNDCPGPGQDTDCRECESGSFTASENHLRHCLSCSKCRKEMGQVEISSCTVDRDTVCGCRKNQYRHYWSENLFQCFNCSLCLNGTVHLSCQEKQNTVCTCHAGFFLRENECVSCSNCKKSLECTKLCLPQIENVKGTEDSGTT

B1: A106F (designed binder)
chain: SMEEEVEKAAKEYEKKKKEAIEKHLEKLKAKDKEAAERFLKELEEAAKEYAKDEAKTMSEEEAKRRAKKYKEKVLLSELSEEEQKEIKEAEEKLVRTILKYVEEAFK
B2: K18W (designed binder)
chain: B1 chain with K18W, F106A
B3: L76D (designed binder)
chain: B1 chain with L76D, F106A
B4: K69A (designed binder)
chain: B1 chain with K69A, F106A
B5: V6W (designed binder)
chain: B1 chain with V6W, F106A
B6: T57C (designed binder)
chain: B1 chain with T57C, F106A
B7: D32A (designed binder)
chain: B1 chain with D32A, F106A
B8: E62R (designed binder)
chain: B1 chain with E62R, F106A
B9: E42G (designed binder)
chain: B1 chain with E42G, F106A
B10: K27C (designed binder)
chain: B1 chain with K27C, F106A
B11: Y50D (designed binder)
chain: B1 chain with Y50D, F106A
B12: A105E (designed binder)
chain: B1 chain with A105E, F106A
B13: L94W (designed binder)
chain: B1 chain with L94W, F106A
B14: K41R (designed binder)
chain: B1 chain with K41R, F106A
B15: E92M (designed binder)
chain: B1 chain with E92M, F106A
B16: E42M (designed binder)
chain: B1 chain with E42M, F106A
B17: I21P (designed binder)
chain: B1 chain with I21P, F106A
B18: E14W (designed binder)
chain: B1 chain with E14W, F106A
B19: A105Y (designed binder)
chain: B1 chain with A105Y, F106A
B20: A35M (designed binder)
chain: B1 chain with A35M, F106A
B21: A63F (designed binder)
chain: B1 chain with A63F, F106A
B22: L25R (designed binder)
chain: B1 chain with L25R, F106A
B23: E82D (designed binder)
chain: B1 chain with E82D, F106A
B24: I98W (designed binder)
chain: B1 chain with I98W, F106A
B25: H24E (designed binder)
chain: B1 chain with H24E, F106A
B26: T57G (designed binder)
chain: B1 chain with T57G, F106A
B27: R66I (designed binder)
chain: B1 chain with R66I, F106A
B28: Y70R (designed binder)
chain: B1 chain with Y70R, F106A
B29: I21H (designed binder)
chain: B1 chain with I21H, F106A
B30: T57Q (designed binder)
chain: B1 chain with T57Q, F106A
B31: K88G (designed binder)
chain: B1 chain with K88G, F106A
B32: S59C (designed binder)
chain: B1 chain with S59C, F106A
B33: A51L (designed binder)
chain: B1 chain with A51L, F106A
B34: E7C (designed binder)
chain: B1 chain with E7C, F106A
B35: K33D (designed binder)
chain: B1 chain with K33D, F106A
B36: A90R (designed binder)
chain: B1 chain with A90R, F106A
B37: E49Q (designed binder)
chain: B1 chain with E49Q, F106A
B38: E89Q (designed binder)
chain: B1 chain with E89Q, F106A
B39: K11C (designed binder)
chain: B1 chain with K11C, F106A
B40: E44H (designed binder)
chain: B1 chain with E44H, F106A
B41: K107W (designed binder)
chain: B1 chain with F106A, K107W
B42: E7R (designed binder)
chain: B1 chain with E7R, F106A
B43: L76A (designed binder)
chain: B1 chain with L76A, F106A
B44: Q84R (designed binder)
chain: B1 chain with Q84R, F106A
B45: K29W (designed binder)
chain: B1 chain with K29W, F106A
B46: H24P (designed binder)
chain: B1 chain with H24P, F106A
B47: E12P (designed binder)
chain: B1 chain with E12P, F106A
B48: L94A (designed binder)
chain: B1 chain with L94A, F106A
B49: E89V (designed binder)
chain: B1 chain with E89V, F106A
B50: K41C (designed binder)
chain: B1 chain with K41C, F106A
B51: Y70Q (designed binder)
chain: B1 chain with Y70Q, F106A
B52: E19D (designed binder)
chain: B1 chain with E19D, F106A
B53: L99H (designed binder)
chain: B1 chain with L99H, F106A
B54: K48S (designed binder)
chain: B1 chain with K48S, F106A
B55: K52W (designed binder)
chain: B1 chain with K52W, F106A
B56: E4M (designed binder)
chain: B1 chain with E4M, F106A
B57: L28D (designed binder)
chain: B1 chain with L28D, F106A
B58: L94V (designed binder)
chain: B1 chain with L94V, F106A
B59: K16N (designed binder)
chain: B1 chain with K16N, F106A

Biological target: T1, TNFR1
Assay: yeast display SC50

Binder | apparent Kd (screen)
B1 | 13.8 nM
B2 | 0.79 nM
B3 | 1.16 nM
B4 | 0.49 nM
B5 | 0.49 nM
B6 | 2.73 nM
B7 | 1.4 nM
B8 | 0.49 nM
B9 | 12.5 nM
B10 | 0.593 nM
B11 | 7.78 nM
B12 | 0.446 nM
B13 | 0.446 nM
B14 | 0.869 nM
B15 | 12.5 nM
B16 | 12.5 nM
B17 | 13.8 nM
B18 | 10.4 nM
B19 | 2.73 nM
B20 | 0.446 nM

Binder | apparent Kd (screen)
B21 | 10.4 nM
B22 | 1.69 nM
B23 | 1.05 nM
B24 | 1.86 nM
B25 | 0.49 nM
B26 | 10.4 nM
B27 | 22.2 nM
B28 | 5.31 nM
B29 | 1.05 nM
B30 | 0.446 nM
B31 | 0.49 nM
B32 | 2.73 nM
B33 | 2.73 nM
B34 | 6.43 nM
B35 | 1.05 nM
B36 | 0.446 nM
B37 | 3 nM
B38 | 1.05 nM
B39 | 1.69 nM
B40 | 3 nM

Binder | apparent Kd (screen)
B41 | 5.84 nM
B42 | 5.84 nM
B43 | 4.83 nM
B44 | 1.4 nM
B45 | 0.869 nM
B46 | 12.5 nM
B47 | 9.41 nM
B48 | 0.49 nM
B49 | 2.73 nM
B50 | 0.49 nM
B51 | 5.84 nM
B52 | 0.446 nM
B53 | 4.83 nM
B54 | 0.446 nM
B55 | 5.31 nM
B56 | 0.653 nM
B57 | 0.956 nM
B58 | 0.446 nM
B59 | 0.335 nM

— article PMC12416549 (2024)
